Measured values taken from patent US6156557A, “Alkaline protease from streptomyces sp. and method for preparing the same” (Toto Ltd., priority 1998, dated 2000).

How the values were obtained:
alkaline protease = assay type: biochemical, Streptomyces sp. TOTO-9305; conditions: for Residual Activity: pH 9
[1] = known alkaline proteases, values from References 1-3; cited from earlier work
keratin = conditions: known alkaline proteases, values from Reference 3; cited from earlier work
casein [2] = conditions: known alkaline proteases, values from References 1-3; cited from earlier work
[3] = known alkaline proteases, values from References 1-3; cited from earlier work; remark: listed apart in the source
casein [4] = conditions: known alkaline proteases, values from References 1-3; cited from earlier work; remark: listed apart in the source

Molecule	inhibition of the activity of the enzyme (in words) (alkaline protease)	Residual Activity (alkaline protease)	Isoelectric Point [1]	Specific Activity: Keratin (keratin)	Optimum pH: Casein (casein [2])	Optimum Temp. [3]	Specific Activity: Casein (casein [4])
O=S(=O)(F)Cc1ccccc1 [PMSF, phenyl methanesulfonyl fluoride]	inhibited	0	–	–	–	–	–
O=C(O)CI [Iodoacetic Acid, iodoacetic acid]	not inhibited	96	–	–	–	–	–
CCCCCCCCCCCCOS(=O)(=O)[O-].[Na+] [SDS, sodium dodecylsulfate]	slightly inhibited	74	–	–	–	–	–
O=C(O)c1cc[c]([Hg][Cl])cc1 [PCMB, p-chloromercuribenzoate]	not inhibited	91	–	–	–	–	–
O=C(O)CN(CCN(CC(=O)O)CC(=O)O)CC(=O)O [EDTA, ethylene-diaminetetraacetic acid]	not inhibited	91	–	–	–	–	–
Subtilisin Carlsberg: conventional alkaline protease, subtilisin Carlsberg (protein, UniProt P00780 106-379, looked up) Subtilisin Carlsberg: AQTVPYGIPLIKADKVQAQGFKGANVKVAVLDTGIQASHPDLNVVGGASFVAGEAYNTDGNGHGTHVAGTVAALDNTTGVLGVAPSVSLYAVKVLNSSGSGSYSGIVSGIEWATTNGMDVINMSLGGASGSTAMKQAVDNAYAKGVVVVAAAGNSGSSGNTNTIGYPAKYDSVIAVGAVDSNSNRASFSSVGAELEVMAPGAGVYSTYPTNTYATLNGTSMASPHVAGAAALILSKHPNLSASQVRNRLSSTATYLGSSFYYGKGLINVEAAAQ	–	–	9.8	888 U/mg protein	10.5	50 °C	6,500 U/mg protein
Subtilisin B. subtilis: conventional alkaline protease, subtilisin of B. subtilis (protein, UniProt P04189 107-381, looked up) Subtilisin E: AQSVPYGISQIKAPALHSQGYTGSNVKVAVIDSGIDSSHPDLNVRGGASFVPSETNPYQDGSSHGTHVAGTIAALNNSIGVLGVAPSASLYAVKVLDSTGSGQYSWIINGIEWAISNNMDVINMSLGGPTGSTALKTVVDKAVSSGIVVAAAAGNEGSSGSTSTVGYPAKYPSTIAVGAVNSSNQRASFSSAGSELDVMAPGVSIQSTLPGGTYGAYNGTSMATPHVAGAAALILSKHPTWTNAQVRDRLESTATYLGNSFYYGKGLINVQAAAQ	–	–	7.5-8.0	–	10.5	55 °C	2,900 U/mg protein
Subtilisin BPN^1: conventional alkaline protease, subtilisin BPN (protein, UniProt P00782 108-382, looked up) Subtilisin BPN': AQSVPYGVSQIKAPALHSQGYTGSNVKVAVIDSGIDSSHPDLKVAGGASMVPSETNPFQDNNSHGTHVAGTVAALNNSIGVLGVAPSASLYAVKVLGADGSGQYSWIINGIEWAIANNMDVINMSLGGPSGSAALKAAVDKAVASGVVVVAAAGNEGTSGSSSTVGYPGKYPSVIAVGAVDSSNQRASFSSVGPELDVMAPGVSIQSTLPGNKYGAYNGTSMASPHVAGAAALILSKHPNWTNTQVRSSLENTTTKLGDSFYYGKGLINVQAAAQ	–	–	7.8	436 U/mg protein	10.5	–	2,200 U/mg protein
